Measured values from publication PMC11098746 (2024).
No end group written: not given here.

B1: ADP150 (protein)
chain: MALQLWALTLLGLLGAGASLRPRKLDFFRSEKELNHLAVDEASGVVYLGAVNALYQLDAKLQLEQQVATGPALDNKKCTPPIEASQCHEAEMTDNVNQLLLLDPPRKRLVECGSLFKGICALRALSNISLRLFYEDGSGEKSFVASNDEGVATVGLVSSTGPGGDRVLFVGKGNGPHDNGIIVSTRLLDRTDSREAFEAYTDHATYKAGYLSTNTQQFVAAFEDGPYVFFVFNQQDKHPARNRTLLARMCREDPNYYSYLEMDLQCRDPDIHAAAFGTCLAASVAAPGSGRVLYAVFSRDSRSSGGPGAGLCLFPLDKVHAKMEANRNACYTGTREARDIFYKPFHGDIQCGGHAPGSSKSFPCGSEHLPYPLGSRDGLRGTAVLQRGGLNLTAVTVAAENNHTVAFLGTSDGRILKVYLTPDGTSSEYDSILVEINKRVKRDLVLSGDLGSLYAMTQDKVFRLPVQECLSYPTCTQCRDSQDPYCGWCVVEGRCTRKAECPRAEEASHWLWSRSKSCVAVTSAQPQNMSRRAQGEVQLTVSPLPALSEEDELLCLFGESPPHPARVEGEAVICNSPSSIPVTPPGQDHVAVTIQLLLRRGNIFLTSYQYPFYDCRQAMSLEENLPCISCVSNRWTCQWDLRYHECREASPNPEDGIVRAHMEDSCPQFLGPSPLVIPMNHETDVNFQGKNLDTVKGSSLHVGSDLLKFMEPVTMQESGTFAFRTPKLSHDANETLPLHLYVKSYGKNIDSKLHVTLYNCSFGRSDCSLCRAANPDYRCAWCGGQSRCVYEALCNTTSECPPPVITRIQPETGPLGGGIRITILGSNLGVQAGDIQRISVAGRNCSFQPERYSVSTRIVCVIEAAETPFTGGVEVDVFGKLGRSPPNVQFTFQQPKPLSVEPQQGPQAGGTTLTIHGTHLDTGSQEDVRVTLNGVPCKVTKFGAQLQCVTGPQATRGQMLLEVSYGGSPVPNPGIFFTYRENPVLRAFEPLRSFASGGRSINVTGQGFSLIQRFAMVVIAEPLQSWQPPREAESLQPMTVVGTDYVFHNDTKVVFLSPAVPEEPEAYNLTVLIEMDGHRALLRTEAGAFEYVPDPTFENFTGGVKKQVNKLIHARGTNLNKAMTLQEAEAFVGAERCTMKTLTETDLYCEPPEVQPPPKRRQKRDTTHNLPEFIVKFGSREWVLGRVEYDTRVSDVP
modifications: bait human Fc-tagged dimer
B2: ADP366 (protein)
chain: MESKGASSCRLLFCLLISATVFRPGLGWYTVNSAYGDTIIIPCRLDVPQNLMFGKWKYEKPDGSPVFIAFRSSTKKSVQYDDVPEYKDRLNLSENYTLSISNARISDEKRFVCMLVTEDNVFEAPTIVKVFKQPSKPEIVSKALFLETEQLKKLGDCISEDSYPDGNITWYRNGKVLHPLEGAVVIIFKKEMDPVTQLYTMTSTLEYKTTKADIQMPFTCSVTYYGPSGQKTIHSEQAVFDIYYPTEQVTIQVLPPKNAIKEGDNITLKCLGNGNPPPEEFLFYLPGQPEGIRSSNTYTLTDVRRNATGDYKCSLIDKKSMIASTAITVHYLDLSLNPSGEVTRQIGDALPVSCTISASRNATVVWMKDNIRLRSSPSFSSLHYQDAGNYVCETALQEVEGLKKRESLTLIVEGKPQIKMTKKTDPSGLSKTIICHVEGFPKPAIQWTITGSGSVINQTEESPYINGRYYSKIIISPEENVTLTCTAENQLERTVNSLNVSAISIPEHDEADEISDENREKVNDQAK
modifications: bait human Fc-tagged dimer
B3: ADP329 (protein)
chain: MAPPGSSTVFLLALTIIASTWALTPTHYLTKHDVERLKASLDRPFTNLESAFYSIVGLSSLGAQVPDAKKACTYIRSNLDPSNVDSLFYAAQASQALSGCEISISNETKDLLLAAVSEDSSVTQIYHAVAALSGFGLPLASQEALSALTARLSKEETVLATVQALQTASHLSQQADLRSIVEEIEDLVARLDELGGVYLQFEEGLETTALFVAATYKLMDHVGTEPSIKEDQVIQLMNAIFSKKNFESLSEAFSVASAAAVLSHNRYHVPVVVVPEGSASDTHEQAILRLQVTNVLSQPLTQATVKLEHAKSVASRATVLQKTSFTPVGDVFELNFMNVKFSSGYYDFLVEVEGDNRYIANTVELRVKISTEVGITNVDLSTVDKDQSIAPKTTRVTYPAKAKGTFIADSHQNFALFFQLVDVNTGAELTPHQTFVRLHNQKTGQEVVFVAEPDNKNVYKFELDTSERKIEFDSASGTYTLYLIIGDATLKNPILWNVADVVIKFPEEEAPSTVLSQNLFTPKQEIQHLFREPEKRPPTV
modifications: bait human Fc-tagged dimer
B4: ADP102 (protein)
chain: MARGAALALLLFGLLGVLVAAPDGGFDLSDALPDNENKKPTAIPKKPSAGDDFDLGDAVVDGENDDPRPPNPPKPMPNPNPNHPSSSGSFSDADLADGVSGGEGKGGSDGGGSHRKEGEEADAP
modifications: bait human Fc-tagged dimer
B5: ADP390 (protein)
chain: GTDDATADSRKTYTLTDYLKNTYRLKLYSLRWISDHEYLYKQENNILVFNAEYGNSSVFLENSTFDEFGHSINDYSISPDGQFILLEYNYVKQWRHSYTASYDIYDLNKRQLITEERIPNNTQWVTWSPVGHKLAYVWNNDIYVKIEPNLPSYRITWTGKEDIIYNGITDWVYEEEVFSAYSALWWSPNGTFLAYAQFNDTEVPLIEYSFYSDESLQYPKTVRVPYPKAGAVNPTVKFFVVNTDSLSSVTNATSIQITAPASMLIGDHYLCDVTWATQERISLQWLRRIQNYSVMDICDYDESSGRWNCLVARQHIEMSTTGWVGRFRPSEPHFTLDGNSFYKIISNEEGYRHICYFQIDKKDCTFITKGTWEVIGIEALTSDYLYYISNEYKGMPGGRNLYKIQLSDYTKVTCLSCELNPERCQYYSVSFSKEAKYYQLRCSGPGLPLYTLHSSVNDKGLRVLEDNSALDKMLQNVQMPSKKLDFIILNETKFWYQMILPPHFDKSKKYPLLLDVYAGPCSQKADTVFRLNWATYLASTENIIVASFDGRGSGYQGDKIMHAINRRLGTFEVEDQIEAARQFSKMGFVDNKRIAIWGWSYGGYVTSMVLGSGSGVFKCGIAVAPVSRWEYYDSVYTERYMGLPTPEDNLDHYRNSTVMSRAENFKQVEYLLIHGTADDNVHFQQSAQISKALVDVGVDFQAMWYTDEDHGIASSTAHQHIYTHMSHFIKQCFSLP
modifications: bait human Fc-tagged dimer
B6: ADP142 (protein)
chain: MGLGARGAWAALLLGTLQVLALLGAAHESAAMAASANIENSGLPHNSSANSTETLQHVPSDHTNETSNSTVKPPTSVASDSSNTTVTTMKPTAASNTTTPGMVSTNMTSTTLKSTPKTTSVSQNTSQISTSTMTVTHNSSVTSAASSVTITTTMHSEAKKGSKFDTGS
modifications: bait human Fc-tagged dimer
B7: ADP287 (protein)
chain: MANPGLGLLLALGLPFLLARWGRAWGQIQTTSANENSTVLPSSTSSSSDGNLRPEAITA
modifications: also: human Fc-tagged dimer
B8: ADP285 (protein)
chain: LTQGYNNWTNGLYGYSWDMMVHSRSHQHVKITYRDGRTGELGYLNPGVFTQSRRWKDHADMLKQYATCLSRLLPKYNVTEPQIYFDIWVSINDRFQQRIFDPRVDIVQAAWSPFQRTSWVQPLLMDLSPWRAKLQEIKSSLDNHTEVVFIADFPGLHLENFVSEDLGNTSIQLLQGEVTVELVAEQKNQTLREGEKMQLPAGEYHKVYTTSPSPSCYMYVYVNTTELALEQDLAYLQELKEKVENGSETGPLPPELQPLLEGEVKGGPEPTPLVQTFLRRQQRLQEIERRRNTPFHERFFRFLLRKLYVFRRSFLMTCISLRNLILGRPSLEQLAQEVTYANLRPFEAVGELNPSNTDSSHSNPPESNPDPVHSEF
modifications: bait human Fc-tagged dimer
B9: ADP097 (protein)
chain: SPPRKREEAAAVPAAAPDDLALLKNLRSEEQKKKNRKKLSEKPKPNGRTVEVAEGEAVRTPQSVTAKQPPEIDKKNEKSKKNKKKSKSDAKAVQNSSRHDGKEVDEGAWETKISHREKRQQRKRDKVLTDSGSLDSTIPGIENTITVTTEQLTTASFPVGSKKNKGDSHLNVQVSNFKSGKGDSTLQVSSGLNENLTVNGGGWNEKSVKLSSQISAGEEKWNSVSPASAGKRKTEPSAWSQDTGDANTNGKDWGRSWSDRSIFSGIGSTAEPVSQSTTSDYQWDVSRNQPYIDDEWSGLNGLSSADPNSDWNAPAEEWGNWVDEERASLLKSQEPIPDDQKVSDDDKEKGEGALPTGKSKKKKKKKKKQGEDNSTAQDTEELEKEIREDLPVNTSKTRPKQEKAFSLKTISTSDPAEVLVKNSQPIKTLPPATSTEPSVILSKSDSDKSSSQVPPILQETDKSKSNTKQNSVPPSQTKSETSWESPKQIKKKKKARRET
modifications: bait human Fc-tagged dimer
B10: ADP309 (protein)
chain: MEAPAAGLFLLLLLGTWAPAPGSASSEAPPLINEDVKRTVDLSSHLAKVTAEVVLAHLGGGSTSRATSFLLALEPELEARLAHLGVQVKGEDEEENNLEVRETKIKGKSGRFFTVKLPVALDPGAKISVIVETVYTHVLHPYPTQITQSEKQFVVFEGNHYFYSPYPTKTQTMRVKLASRNVESYTKLGNPTRSEDLLDYGPFRDVPAYSQDTFKVHYENNSPFLTITSMTRVIEVSHWGNIAVEENVDLKHTGAVLKGPFSRYDYQRQPDSGISSIRSFKTILPAAAQDVYYRDEIGNVSTSHLLILDDSVEMEIRPRFPLFGGWKTHYIVGYNLPSYEYLYNLGDQYALKMRFVDHVFDEQVIDSLTVKIILPEGAKNIEIDSPYEISRAPDELHYTYLDTFGRPVIVAYKKNLVEQHIQDIVVHYTFNKVLMLQE
modifications: bait human Fc-tagged dimer
B11: ADP148 (protein)
chain: MASWIGAVILPLLGLLLSLPAGADVKARSCGEVRQAYGAKGFSLADIPYQEIAGEHLRICPQEYTCCTTEMEDKLSQQSKLEFENLVEETSHFVRTTFVSRHKKFDEFFRELLENAEKSLNDMFVRTYGMLYMQNSEVFQDLFTELKRYYTGGNVNLEEMLNDFWARLLERMFQLINPQYHFSEDYLECVSKYTDQLKPFGDVPRKLKIQVTRAFIAARTFVQGLTVGREVANRVSKVSPTPGCIRALMKMLYCPYCRGLPTVRPCNNYCLNVMKGCLANQADLDTEWNLFIDAMLLVAERLEGPFNIESVMDPIDVKISEAIMNMQENSMQVSAKVFQGCGQPKPAPALRSARSAPENFNTRFRPYNPEERPTTAAGTSLDRLVTDIKEKLKLSKKVWSALPYTICKDESVTAGTSNEEECWNGHSKARYLPEIMNDGLTNQINNPEVDVDITRPDTFIRQQIMALRVMTNKLKNAYNGNDVNFQDTSDESSGSGSGSGCMDDVCPTEFEFVTTEAPAVDPDRREVDSS
modifications: bait human Fc-tagged dimer
B12: ADP313 (protein)
chain: MAHLHHSCLCFRSWLPAMLAVLLSLAPSASSDISASRPNILLLMADDLGIGDIGCYGNNTMRTPNIDRLAEDGVKLTQHISAASLCTPSRAAFLTGRYPVRSGMVSSIGYRVLQWTGASGGLPTNETTFAKILKEKGYATGLIGKWHLGLNCESASDHCHHPLHHGFDHFYGMPFSLMGDCARWELSEKRVNLEQKLNFLFQVLALVALTLVAGKLTHLIPVSWMPVIWSALSAVLLLASSYFVGALIVHADCFLMRNHTITEQPMCFQRTTPLILQEVASFLKRNKHGPFLLFVSFLHVHIPLITMENFLGKSLHGLYGDNVEEMDWMVGRILDTLDVEGLSNSTLIYFTSDHGGSLENQLGNTQYGGWNGIYKGGKGMGGWEGGIRVPGIFRWPGVLPAGRVIGEPTSLMDVFPTVVRLAGGEVPQDRVIDGQDLLPLLLGTAQHSDHEFLMHYCERFLHAARWHQRDRGTMWKVHFVTPVFQPEGAGACYGRKVCPCFGEKVVHHDPPLLFDLSRDPSETHILTPASEPVFYQVMERVQQAVWEHQRTLSPVPLQLDRLGNIWRPWLQPCCGPFPLCWCLREDDPQ
modifications: bait human Fc-tagged dimer

Biological target: Circumsporozoite protein (CSP) (Plasmodium falciparum (isolate 3D7), UniProt Q7K740)
Test: AVEXIS screen signal:noise (double-corrected)

Chain of Circumsporozoite protein (CSP) (Q7K740 19-374): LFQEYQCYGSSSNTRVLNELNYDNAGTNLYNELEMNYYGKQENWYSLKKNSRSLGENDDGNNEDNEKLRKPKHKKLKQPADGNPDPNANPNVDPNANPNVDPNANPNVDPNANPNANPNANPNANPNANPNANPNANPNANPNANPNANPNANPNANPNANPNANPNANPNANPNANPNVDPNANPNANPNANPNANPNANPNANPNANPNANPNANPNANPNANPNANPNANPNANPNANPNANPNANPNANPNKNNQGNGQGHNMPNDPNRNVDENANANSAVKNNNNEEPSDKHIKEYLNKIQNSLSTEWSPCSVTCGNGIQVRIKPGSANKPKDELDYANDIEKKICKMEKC

Point of comparison: B6, binding score 0.7. Against it:
- B1 — higher, 0.742
- B2 — higher, 3.25
- B3 — higher, 0.882
- B4 — higher, 0.919
- B5 — higher, 0.756
- B7 — higher, 1.47
- B8 — higher, 0.774
- B9 — higher, 1.17
- B10 — higher, 1.06
- B11 — higher, 0.913
- B12 — higher, 0.959
